Measured values reported in the supplement of paper PMC10567573.

B1: SNAP91 (parent)
chain: FATASAAVPVSTSKPSSDLLDLQP

Variants of: B1
Experiment: protein stability index of a GFP-peptide fusion (GPS, HEK-293T) (PSI 1-6); higher = more stable
Details: c terminus: a fixed tail appended
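Note: lentivirally expressed fusions sorted by FACS into six bins by GFP to DsRed ratio, PSI derived from sequencing read proportions per bin multiplied by bin number.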

First: FATASAAVPVSTWKPSSDLLDLQP
Second: FATASAAVPVSTDKPSSDLLDLQP
The protein stability index of the first is lower: 2.67 for the first, 3.62 for the second.

Compared with FATASAAVPVSTFKPSSDLLDLQP, FATASAAVPVRTSKPSSDLLDLQP is higher in protein stability index: 3.22 for the first, 3.77 for the second.

Compared with FATASAAVPVGTSKPSSDLLDLQP, FATASAAVPVVTSKPSSDLLDLQP is lower in protein stability index: 3.73 for the first, 3.62 for the second.

First: FATASAAVPVQTSKPSSDLLDLQP
Second: FATASAAVPVITSKPSSDLLDLQP
The protein stability index of the first is higher: 3.24 for the first, 3.15 for the second.

Compared with FATASAAVPVFTSKPSSDLLDLQP, FDTASAAVPVSTSKPSSDLLDLQP is higher in protein stability index: 1.7 for the first, 5 for the second.

Going from FGTASAAVPVSTSKPSSDLLDLQP to FETASAAVPVSTSKPSSDLLDLQP, the protein stability index rises from 4.09 to 4.5.

First: FPTASAAVPVSTSKPSSDLLDLQP
Second: FITASAAVPVSTSKPSSDLLDLQP
The protein stability index of the first is higher: 4.27 for the first, 2.2 for the second.

First: FFTASAAVPVSTSKPSSDLLDLQP
Second: FATASAAIPVSTSKPSSDLLDLQP
The protein stability index of the first is lower: 3.21 for the first, 3.93 for the second.

First: FATASAAQPVSTSKPSSDLLDLQP
Second: FATASAAKPVSTSKPSSDLLDLQP
The protein stability index of the first is higher: 4.2 for the first, 4.13 for the second.

Going from FATASAATPVSTSKPSSDLLDLQP to FATASAACPVSTSKPSSDLLDLQP, the protein stability index falls from 4.12 to 3.38.

First: FATASAAFPVSTSKPSSDLLDLQP
Second: FATCSAAVPVSTSKPSSDLLDLQP
The protein stability index of the first is higher: 3.11 for the first, 2.66 for the second.

Compared with FATWSAAVPVSTSKPSSDLLDLQP, FATHSAAVPVSTSKPSSDLLDLQP is higher in protein stability index: 1.64 for the first, 4.06 for the second.

Compared with FATGSAAVPVSTSKPSSDLLDLQP, FATNSAAVPVSTSKPSSDLLDLQP is higher in protein stability index: 3.63 for the first, 3.81 for the second.

Going from FATPSAAVPVSTSKPSSDLLDLQP to FATISAAVPVSTSKPSSDLLDLQP, the protein stability index falls from 4.19 to 3.04.

First: FATKSAAVPVSTSKPSSDLLDLQP
Second: FATDSAAVPVSTSKPSSDLLDLQP
The protein stability index of the first is lower: 3.8 for the first, 4.72 for the second.

Going from FATQSAAVPVSTSKPSSDLLDLQP to FATASAAVPVSTSKPSSDLMDLQP, the protein stability index falls from 3.9 to 3.74.

Going from FATASAAVPVSTSKPSSDLPDLQP to FATASAAVPVSTSKPSSDLGDLQP, the protein stability index falls from 4.36 to 4.12.

First: FATASAAVPVSTSKPSSDLEDLQP
Second: FATASAAVPVSTSKPSSDLTDLQP
The protein stability index of the first is higher: 4.34 for the first, 3.92 for the second.

First: FATASAAVPNSTSKPSSDLLDLQP
Second: FATASAAVPQSTSKPSSDLLDLQP
The protein stability index of the first is lower: 3.94 for the first, 4.61 for the second.

First: FATASAAVPSSTSKPSSDLLDLQP
Second: FATASAAVPASTSKPSSDLLDLQP
The protein stability index of the first is higher: 3.97 for the first, 3.87 for the second.

First: FATASAAVPRSTSKPSSDLLDLQP
Second: FATASAAVPDSTSKPSSDLLDLQP
The protein stability index of the first is lower: 2.85 for the first, 4.18 for the second.

First: FATASAAVPYSTSKPSSDLLDLQP
Second: FATASAAVPESTSKPSSDLLDLQP
The protein stability index of the first is higher: 4.29 for the first, 4.23 for the second.

Compared with FATASAAVPKSTSKPSSDLLDLQP, FATASAAVPTSTSKPSSDLLDLQP is higher in protein stability index: 4.04 for the first, 4.17 for the second.

Compared with FATASAAVPFSTSKPSSDLLDLQP, FATASAAVPISTSKPSSDLLDLQP is higher in protein stability index: 2.69 for the first, 3.39 for the second.

Going from NATASAAVPVSTSKPSSDLLDLQP to MATASAAVPVSTSKPSSDLLDLQP, the protein stability index rises from 4.53 to 4.67.

Going from LATASAAVPVSTSKPSSDLLDLQP to TATASAAVPVSTSKPSSDLLDLQP, the protein stability index rises from 4.62 to 4.91.

Going from CATASAAVPVSTSKPSSDLLDLQP to FATASAAVPVSTSKPSSDLLDLKP, the protein stability index falls from 4.64 to 3.42.

Compared with FATASAAVPVSTSKPSSDLLDLAP, FATASAAVPVSTSKPSSDLLDLVP is lower in protein stability index: 3.5 for the first, 3.4 for the second.

Compared with FATASAAVPVSTSKPSSDLLDLYP, FATASAAVPVSTSKPSSDLLDLTP is higher in protein stability index: 2.8 for the first, 3.96 for the second.

First: FATASAAVPVSTSYPSSDLLDLQP
Second: FATASAAVPVSTSLPSSDLLDLQP
The protein stability index of the first is lower: 3.21 for the first, 3.64 for the second.

Going from FATASAAVPVSTSGPSSDLLDLQP to FATASAAVPVSTSIPSSDLLDLQP, the protein stability index falls from 3.97 to 3.5.

Going from FATASAAVPVSTSRPSSDLLDLQP to FATASAAVPVSTSQPSSDLLDLQP, the protein stability index rises from 3.87 to 4.61.

First: FATASAAVPVSTSDPSSDLLDLQP
Second: FATASAAVPVSTSSPSSDLLDLQP
The protein stability index of the first is higher: 4.36 for the first, 4.01 for the second.

First: FATASAAVPVSTSWPSSDLLDLQP
Second: FATASAAVPVSTSKPSSDCLDLQP
The protein stability index of the first is lower: 2.03 for the first, 4.06 for the second.

Compared with FATASAAVPVSTSKPSSDDLDLQP, FATASAAVPVSTSKPSSDPLDLQP is lower in protein stability index: 4.64 for the first, 4.39 for the second.

First: FATASAAVPVSTSKPSSDMLDLQP
Second: FATASAAVPVSTSKPSSDQLDLQP
The protein stability index of the first is lower: 3.81 for the first, 3.96 for the second.

Going from FATASAAVPVSTSKPSSDALDLQP to FATASHAVPVSTSKPSSDLLDLQP, the protein stability index falls from 4.02 to 3.19.

First: FATASWAVPVSTSKPSSDLLDLQP
Second: FATASVAVPVSTSKPSSDLLDLQP
The protein stability index of the first is higher: 4.07 for the first, 2.98 for the second.

Going from FATASGAVPVSTSKPSSDLLDLQP to FATASPAVPVSTSKPSSDLLDLQP, the protein stability index rises from 3.5 to 3.54.

Compared with FATASQAVPVSTSKPSSDLLDLQP, FATASYAVPVSTSKPSSDLLDLQP is lower in protein stability index: 3.67 for the first, 1.96 for the second.

Going from FATASEAVPVSTSKPSSDLLDLQP to FATANAAVPVSTSKPSSDLLDLQP, the protein stability index falls from 4.31 to 3.66.

Going from FATAYAAVPVSTSKPSSDLLDLQP to FATARAAVPVSTSKPSSDLLDLQP, the protein stability index rises from 1.67 to 3.45.

First: FATAFAAVPVSTSKPSSDLLDLQP
Second: FATASAAVPVSTSKISSDLLDLQP
The protein stability index of the first is lower: 1.45 for the first, 3.52 for the second.

First: FATASAAVPVSTSKFSSDLLDLQP
Second: FATASAAVPVSTSKRSSDLLDLQP
The protein stability index of the first is lower: 2.54 for the first, 2.9 for the second.

Going from FATASAAVPVSTSKESSDLLDLQP to FATASAAVPVSTSKCSSDLLDLQP, the protein stability index falls from 4.89 to 3.15.

First: FATASAAVPVSTSKHSSDLLDLQP
Second: FATASAAVPVSTSKLSSDLLDLQP
The protein stability index of the first is higher: 3.96 for the first, 2.72 for the second.

Compared with FATASAAVPVSTSKTSSDLLDLQP, FATASAAVPVSTSKQSSDLLDLQP is lower in protein stability index: 3.74 for the first, 3.44 for the second.
